Blank lines part the entries; values can stand above or below the substance they belong to.
Legend:
Abl2 SH2 domain [1] = target: Abl2 SH2 domain (UniProt P42684); test: SH2 domain microarray probed with fluorescent peptide; conditions: reference: unphosphorylated Tyr1510 peptide; sites Y1510
Abl1 SH2 domain [2] = target: Abl1 SH2 domain (UniProt P00519); test: as above; conditions: reference: unphosphorylated Tyr1510 peptide; sites Y1510
Abl1 = Abl1 (UniProt P00519); test: co-immunoprecipitation with anti-Abl1; conditions: reference: vehicle (DMSO) treated cells; sites Y1510
Abl2 = Abl2 (UniProt P42684); test: co-immunoprecipitation with anti-Abl2; conditions: reference: vehicle (DMSO) treated cells; sites Y1510
Abl2 SH2 domain [3] = target: Abl2 SH2 domain (UniProt P42684); test: GST pull-down from cell lysate; conditions: reference: vehicle (DMSO) treated cells; sites Y1510
Abl1 SH2 domain [4] = target: Abl1 SH2 domain (UniProt P00519); test: GST pull-down from cell lysate; conditions: reference: vehicle (DMSO) treated cells; sites Y1510
[5] = target: GST-tagged SH2 domain of Abl1 (human) (UniProt P00519); test: peptide or protein array; GST-tagged SH2 domains of 124 proteins and GST alone spotted in duplicate on nitrocellulose-coated slides; biotinylated IQGAP1 peptides on streptavidin-Cy3 as probes, 16 h at 4 °C in PBS-Tween with 3% milk and 3% BSA; fluorescence read
[6] = target: GST-tagged SH2 domain of Abl2 (human) (UniProt P42684); test: as above
[7] = target: GST-tagged SH2 domain of Abl1 (human) (UniProt P00519); test: pull-down; GST-SH2 domains of Abl1 or Abl2, or GST, on glutathione-Sepharose, incubated with H1993 cell lysates for 3 h at 4 °C in Buffer A; cells treated with 100 nM crizotinib or DMSO for 24 h; Western blot for IQGAP1
[8] = target: GST-tagged SH2 domain of Abl2 (human) (UniProt P42684); test: as above
[9] = target: endogenous Abl1 (H1993 cells) (human (endogenous in H1993)) (UniProt P00519); test: co-IP; endogenous proteins from H1993 cell lysates (Buffer A: 50 mM Tris-HCl pH 7.4, 150 mM NaCl, 1% Triton X-100); IP with anti-MET, anti-IQGAP1, anti-Abl1 or anti-Abl2, controls IgG or non-immune rabbit serum; for the Abl IPs cells also treated with 100 nM crizotinib or DMSO for 24 h
[10] = target: endogenous Abl2 (H1993 cells) (human (endogenous in H1993)) (UniProt P42684); test: as above

other: array signal as percent of phosphopeptide signal (Abl2 SH2 domain [1]): gained; reference less than 0.5 | other: array signal as percent of phosphopeptide signal (Abl1 SH2 domain [2]): gained; reference less than 0.5
Substance: IQGAP1 1502-1518 (from UniProt P46940) pTyr1510 peptide

other: percent decrease vs vehicle (Abl1): 84% | other: percent decrease vs vehicle (Abl2): 75% | other: percent decrease vs vehicle (Abl2 SH2 domain [3]): 92% | other: percent decrease vs vehicle (Abl1 SH2 domain [4]): 82%
Substance: IQGAP1 (from UniProt P46940) 100 nM crizotinib (MET inhibitor), 24 h

percent of the binding of the tyrosine-phosphorylated peptide (array fluorescence) [5]: < 0.5% | percent of the binding of the tyrosine-phosphorylated peptide (array fluorescence) [6]: < 0.5%
Substance: biotinylated IQGAP1 peptide (amino acids 1502 to 1518) with non-phosphorylated Tyr1510 (from UniProt P46940 1502-1518)

percent less IQGAP1 pulled down after crizotinib against DMSO [7]: 82% | percent less IQGAP1 pulled down after crizotinib against DMSO [8]: 92% | percent decrease of co-immunoprecipitated IQGAP1 after crizotinib against DMSO [9]: 84% | percent decrease of co-immunoprecipitated IQGAP1 after crizotinib against DMSO [10]: 75%
Substance: endogenous IQGAP1 (H1993 cells) (from UniProt P46940 1-1657) (natural protein)

Source: PMC9913818
